Source: patent US20150110776A1 (PROTHENA BIOSCIENCES, published 2015)

T1: rat IAPP (rat, UniProt P12969 38-74)
T1 construct: Used as the soluble analyte in the Biacore assay in place of human IAPP; also called rat islet amyloid polypeptide
T1 peptide (looked up): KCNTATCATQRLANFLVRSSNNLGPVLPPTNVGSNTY

T2: human islet-amyloid polypeptide (IAPP) (human)
T2 construct: also called hIAPP; human IAPP
T2 peptide: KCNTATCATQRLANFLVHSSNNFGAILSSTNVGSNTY

T3: hIAPP peptide LSSTNVGSNTY, amino acids 27-37 of IAPP (human)
T3 peptide: LSSTNVGSNTY


What was measured:
rat IAPP = molecular target: T1, rat IAPP; experiment: SPR (Biacore), antibody captured on anti-human CM5 chip, rat IAPP as analyte, global 1:1 fit
Procedure: The affinity of various combinations of 3H6 humanized heavy chains and humanized light chain proteins for IAPP was analyzed on a Biacore instrument. Biacore analysis was performed by preparing an anti-human CM5 chip following the protocol provided in the kit. The 3H6 antibody was captured such that the maximum binding of rat IAPP would not exceed 20-30 RU. […] Data was blank subtracted to both an irrelevant sensor not containing 3H6 and 0 IAPP concentration to account for the dissociation of 3H6 from the anti-human capture. Data was then analyzed using a global 1:1 fit.

[1] = molecular target: T2, human islet-amyloid polypeptide (IAPP); experiment: hybridoma screen against hIAPP
Procedure: (§1) LA28-3H6 was originally a mouse hybridoma, producing an anti-hIAPP antibody of isotype Gamma 2a k, which resulted from a fusion of spleen cells from a mouse injected with hIAPP coupled to KLH via gluteraldehyde. The mouse was immunized with 25 μg of the conjugate in RIBI adjuvant on days 0, 7, 14, 21, 39, 46, 53, 60, 77, 84, and 91. […] On day 97 the mouse was injected with the IAPP/KLH conjugate both intraperitoneally and intravenously. Three days later the spleen was removed and a cell suspension was generated and frozen. Four months later the suspension was thawed and fused to SP2/0 cells. The fusion was screened against hIAPP, then epitope mapped against shorter peptides and found to react with […] (SEQ ID NO: 4), which corresponds to amino acids 27-37 of IAPP.

[2] = molecular target: T3, hIAPP peptide LSSTNVGSNTY, amino acids …; experiment: hybridoma epitope mapping against shorter peptides
Procedure: as §1

Binder	Kd (rat IAPP)	koff (rat IAPP)	kon (rat IAPP)	binding result [1]	binding result [2]
murine monoclonal antibody 3H6 (antibody, V domains shown, also called m3H6; mouse 3H6) VH: EVKLEESGGGLVQPGGSMKLSCVASGFTFSNYWMYWVRQSPEKGLEWVAEIRLKSDNYATHYAESVKGRFTISRDDSKSSVYLQMNSLRAEDTGIYYCTIFDYWGQGTTVTVSS VL: not shown	18.6 nM	0.00152 s⁻¹	81800 M⁻¹ s⁻¹	binds	binds
chimeric 3H6 antibody (antibody, V domains shown, also called ch3H6) VH: EVKLEESGGGLVQPGGSMKLSCVASGFTFSNYWMYWVRQSPEKGLEWVAEIRLKSDNYATHYAESVKGRFTISRDDSKSSVYLQMNSLRAEDTGIYYCTIFDYWGQGTTVTVSS VL: not shown	13.7 nM	0.00147 s⁻¹	107000 M⁻¹ s⁻¹	–	–
humanized 3H6 antibody version H2L1 (antibody, V domains shown, also called h3H6-H2L1) VH: EVQLVESGGGLVQPGGSLKLSCAASGFTFSNYWMYWVRQAPGKGLEWVGEIRLKSDNYATHYAESVKGRFTISRDDSKNTAYLQMDSLKTEDTAVYYCTTFDYWGQGTLVTVSS VL: DVVMTQSPLSLPVTLGQPASISCKSSQSLLDSDGKTYLNWLQQRPGQSPKRLIYLVSKLDSGVPDRFSGSGSGTDFTLKISRVEAEDVGVHYCWQGRHFPYTFGQGTKLEIK	34.5 nM	0.00294 s⁻¹	85200 M⁻¹ s⁻¹	–	–
humanized 3H6 antibody version H3L2 (antibody, V domains shown, also called h3H6-H3L2) VH: EVQLVESGGGLVQPGGSLKLSCAASGFTFSNYWMYWVRQAPGKGLEWVGEIRLKSDNYATHYAESVKGRFTISRDDSKNTAYLQMDSLKTEDTAVYYCTIFDYWGQGTLVTVSS VL: DVVMTQSPLSLPVTLGQPASISCKSSQSLLDSDGKTYLNWLQQRPGQSPKRLIYLVSKLDSGVPDRFSGSGSGTDFTLKISRVEAEDVGVYYCWQGRHFPYTFGQGTKLEIK	33.2 nM	0.00625 s⁻¹	188000 M⁻¹ s⁻¹	–	–
humanized 3H6 antibody version H1L1 (antibody, V domains shown, it was captured on an anti-human chip; also called h3H6-H1L1) VH: EVQLVESGGGLVQPGGSLKLSCAASGFTFSNYWMYWVRQAPGKGLEWVGEIRLKSDNYATHYAESVKGRFTISRDDSKNTVYLQMDSLKTEDTAVYYCTIFDYWGQGTLVTVSS VL: DVVMTQSPLSLPVTLGQPASISCKSSQSLLDSDGKTYLNWLQQRPGQSPKRLIYLVSKLDSGVPDRFSGSGSGTDFTLKISRVEAEDVGVHYCWQGRHFPYTFGQGTKLEIK	20.4 nM	0.00231 s⁻¹	113000 M⁻¹ s⁻¹	–	–
humanized 3H6 antibody version H2L2 (antibody, V domains shown, also called h3H6-H2L2) VH: EVQLVESGGGLVQPGGSLKLSCAASGFTFSNYWMYWVRQAPGKGLEWVGEIRLKSDNYATHYAESVKGRFTISRDDSKNTAYLQMDSLKTEDTAVYYCTTFDYWGQGTLVTVSS VL: DVVMTQSPLSLPVTLGQPASISCKSSQSLLDSDGKTYLNWLQQRPGQSPKRLIYLVSKLDSGVPDRFSGSGSGTDFTLKISRVEAEDVGVYYCWQGRHFPYTFGQGTKLEIK	85.4 nM	0.00646 s⁻¹	75700 M⁻¹ s⁻¹	–	–
